We go through three substances from patent US20250262292A1.

Test [1] concerns the target native host protein. Kind of test: method not stated.
Test [2] deals with native host protein. Kind of test: method not stated; reference is wild type PmSLP-1 (SEQ.ID NO: 2).

Regarding “modified PmSLP-1 with E240A mutation (SEQ.ID NO: 67)”, the Kd (as a rule, the free concentration of one partner at which half of the binding sites on the other are occupied at equilibrium, for simple one-to-one binding) with native host protein [1] was under 2000 nM. In the test with native host protein [2], this substance gave a factor by which Kd exceeds that of the native non-modified PmSLP of over 500 fold.

In the case of “modified PmSLP-1 with V214D mutation (SEQ.ID NO: 65)”, the Kd with native host protein [1] was under 2000 nM. Further, the factor by which Kd exceeds that of the native non-modified PmSLP with native host protein [2] was over 500 fold.

In the test with native host protein [1], “wild type PmSLP-1 protein of P. multocida (SEQ.ID NO: 2)” gave a Kd of 30 nM. In other words, the double-digit nanomolar range.
